One series concerns the target MBP-DDX5-GST (Homo sapiens, UniProt P17844 1-614). Put plainly: fluorescence anisotropy. On the technique in general: Fluorescence polarisation rises when a labelled molecule tumbles more slowly, as on binding a larger partner.
The next series concerns the target Dbp2 (Saccharomyces cerevisiae, UniProt P24783 1-546). Nature of the series: fluorescence anisotropy.

Chain of Dbp2 (P24783 whole entry): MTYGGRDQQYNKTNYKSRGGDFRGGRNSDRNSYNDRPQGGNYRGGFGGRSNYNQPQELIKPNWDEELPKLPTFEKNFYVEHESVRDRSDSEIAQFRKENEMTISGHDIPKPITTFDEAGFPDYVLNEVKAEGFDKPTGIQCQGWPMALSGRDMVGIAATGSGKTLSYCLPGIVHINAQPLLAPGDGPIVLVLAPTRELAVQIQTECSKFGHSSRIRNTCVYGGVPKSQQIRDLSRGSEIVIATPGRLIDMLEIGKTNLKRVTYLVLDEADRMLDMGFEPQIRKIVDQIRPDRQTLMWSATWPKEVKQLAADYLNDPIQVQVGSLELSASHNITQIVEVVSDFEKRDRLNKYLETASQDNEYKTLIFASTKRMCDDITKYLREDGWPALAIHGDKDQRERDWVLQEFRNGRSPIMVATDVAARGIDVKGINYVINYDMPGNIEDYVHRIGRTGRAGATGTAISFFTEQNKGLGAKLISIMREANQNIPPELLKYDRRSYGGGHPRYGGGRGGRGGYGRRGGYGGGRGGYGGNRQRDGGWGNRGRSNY
Chain of MBP-DDX5-GST (P17844 whole entry): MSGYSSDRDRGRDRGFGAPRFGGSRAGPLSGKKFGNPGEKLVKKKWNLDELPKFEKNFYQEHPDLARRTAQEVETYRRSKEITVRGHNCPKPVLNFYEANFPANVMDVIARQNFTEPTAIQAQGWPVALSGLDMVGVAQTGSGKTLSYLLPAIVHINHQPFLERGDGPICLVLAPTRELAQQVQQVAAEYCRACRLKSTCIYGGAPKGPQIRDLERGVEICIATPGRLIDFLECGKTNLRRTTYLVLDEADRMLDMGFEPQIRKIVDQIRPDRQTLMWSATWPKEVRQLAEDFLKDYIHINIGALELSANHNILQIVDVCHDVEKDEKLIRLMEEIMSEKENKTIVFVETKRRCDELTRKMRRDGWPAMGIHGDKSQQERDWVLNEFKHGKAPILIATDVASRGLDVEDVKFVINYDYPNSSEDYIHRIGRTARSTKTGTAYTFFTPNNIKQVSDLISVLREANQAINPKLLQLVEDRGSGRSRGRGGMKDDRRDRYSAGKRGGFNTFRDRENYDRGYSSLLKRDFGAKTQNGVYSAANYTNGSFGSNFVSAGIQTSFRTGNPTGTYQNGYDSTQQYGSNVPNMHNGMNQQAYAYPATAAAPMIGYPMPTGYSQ

B1: 16-nt ssRNA (6-FAM) (ssRNA)
RNA: AGCACCGUAAAGACGC
Turning to B1, the results for the binding signal with MBP-DDX5-GST and in the series with Dbp2 were around 4 fold tighter than Dbp2 and ~4 fold weaker than MBP-DDX5-GST, respectively.

(Values after paper PMC5473146.)
